B1: chimeric antibody 69B1 (antibody, human IgG1, kappa, V domains shown)
VH: QIQLVQSGPELKKPGETVKISCKASGYTFTDYSMNWVKQAPGKGLKWMGWLNTETGEPIYADDFKGRFVFSLETSASTAYLEINNLNDEDTATYFCAREAIYYGTSYVLDYWGQGTSVTVSS
VL: DIVLTQSPASLAVSLGQRATISCRASESVEYYGTNFMQWYQQKPGQPPKLLIYSASNVESGVPARFSGSGSGTDFSLNIHPVEEDDIAVYFCQQSRKDPSTFGEGTNLEIKR
B2: chimeric antibody 3C4 (antibody, human IgG1, kappa, V domains shown)
VH: QVQLQQSGPELVKPGASVTISCKASDYSFTNYYIHWVKQRPGQGLEWIGWIYPGNVITKYHEKFKGKAILTADTSSTTAYMQLNSLTSEDSAVYFCARSRATGYFDYWGQGTTLTVSS
VL: DIQMTQTTSSLSASLGDRVTISCRASQDIRNYLNWFQQKPDGTIKLLIYYTSRLHSGVPSRFSGSGSGTDYSLTISNLEQEDMATYFCQQFNTLPWTFGGGTKLEIKR
B3: positive control antibody OPI (humanized antibody SBT-002e in WO 2017083525) (antibody, V domains shown)
VH: QVTLKESGPALVKPTQTLTLTCTFSGFSLSTSGMGVGWIRQPPGKALEWLAHIWWDDDKFYNPSLKSRLTISKDTSKNQVVLTMTNMDPVDTATYYCARLTGTRYFDYWGQGTTVTVSS
VL: DVQMTQSPSSLSASVGDRVTITCKASQDINKFIAWYQQKPGKAPKLLIHYTSTLQPGIPSRFSGSGSGRDYTFTISSLQPEDIATYYCLQYGNLWTFGGGTKVEIK
notes: also called Benchmark OPI

Experiments:
[1] = molecular target: T1, cynomolgus monkey TNFR2 overexpressed on CHO-S cells (CHOS-cTNFR2) (cynomolgus monkey, UniProt P20333 23-461 (human entry)); test: flow cytometry on CHO-S cells overexpressing cynomolgus monkey TNFR2 (chimeric antibodies), MFI-FL2-A; unit taken from the axis Conc log(nM)
T1 construct: also called cTNFR2 CHO-S
T1 chain: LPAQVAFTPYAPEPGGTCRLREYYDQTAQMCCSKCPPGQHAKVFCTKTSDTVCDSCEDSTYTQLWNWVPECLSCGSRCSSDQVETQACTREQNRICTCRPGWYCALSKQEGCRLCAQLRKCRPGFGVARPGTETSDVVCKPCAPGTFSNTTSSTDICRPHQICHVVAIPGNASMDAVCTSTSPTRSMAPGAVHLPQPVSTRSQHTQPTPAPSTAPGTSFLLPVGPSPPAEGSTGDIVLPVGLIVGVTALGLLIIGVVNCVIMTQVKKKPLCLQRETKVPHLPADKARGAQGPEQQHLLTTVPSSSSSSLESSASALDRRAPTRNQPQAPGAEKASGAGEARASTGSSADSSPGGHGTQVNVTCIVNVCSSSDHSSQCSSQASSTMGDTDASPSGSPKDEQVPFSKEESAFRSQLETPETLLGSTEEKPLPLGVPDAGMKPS
Protocol: (§1) In the study, the binding of the chimeric antibodies of the present invention, after being diluted in a gradient, to a stable CHO-S cell strain overexpressing human TNFR2 on the surface was assayed by using a flow cytometer. cDNAs encoding human TNFR2 (SEQ ID NO: 60) and cynomolgus monkey TNFR2 (SEQ ID NO: 61) were cloned into pCH01.0 vectors (Invitrogen), which were transfected into CHO-S cells (Invitrogen) to produce CHO-S cells overexpressing human TNFR2 (CHOS-hTNFR2) and CHO-S cells overexpressing cynomolgus monkey TNFR2 (CHOS-cTNFR2).
(§2) CHOS-hTNFR2 cells or CHOS-cTNFR2 cells were counted and diluted to 2×10⁶ cells/mL, and added to a U-bottom 96-well plate at 100 μL/well. The mixture was centrifuged at 300 g for 5 min, and the cell medium was removed. The dilutions of the samples (the chimeric antibodies 3C4, 69B1, and 72G8 and the positive control antibody OPI) (the antibodies were subjected to a three-fold serial dilution in PBS from the maximum antibody concentration of 300 nM) were added to the U-plate, and the cells were resuspended at 100 μL/well and left to stand on ice for 30 min. The suspension was centrifuged at 400 g for 5 min, and the supernatant was removed. The cells were washed twice with PBS. The mixture was centrifuged at 300 g for 5 min, and PBS was removed. […]

[2] = molecular target: T2, human TNFR2 overexpressed on CHO-S cells (CHOS-hTNFR2) (human, UniProt P20333 23-461); test: flow cytometry on CHO-S cells overexpressing human TNFR2 (chimeric antibodies), MFI-FL2-A; unit taken from the axis Conc log(nM)
T2 construct: also called hTNFR2 CHO-S; human TNFR2 molecule overexpressed on CHO-S cells
T2 sequence: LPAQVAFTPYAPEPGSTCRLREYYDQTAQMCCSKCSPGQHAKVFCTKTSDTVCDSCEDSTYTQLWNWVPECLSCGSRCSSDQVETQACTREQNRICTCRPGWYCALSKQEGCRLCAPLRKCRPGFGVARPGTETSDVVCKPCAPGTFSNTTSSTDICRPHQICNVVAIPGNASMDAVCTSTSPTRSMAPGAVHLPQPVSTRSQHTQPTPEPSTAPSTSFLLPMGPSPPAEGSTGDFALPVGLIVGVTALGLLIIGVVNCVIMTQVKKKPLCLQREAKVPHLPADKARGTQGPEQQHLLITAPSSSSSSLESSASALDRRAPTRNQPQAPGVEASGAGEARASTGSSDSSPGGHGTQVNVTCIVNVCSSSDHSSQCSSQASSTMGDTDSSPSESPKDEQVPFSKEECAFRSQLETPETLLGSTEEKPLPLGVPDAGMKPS
Protocol: as §1, §2

[3] = molecular target: T2, human TNFR2 overexpressed on CHO-S …; test: flow cytometry on CHO-S cells overexpressing human TNFR2 (positive control), MFI-FL2A; unit taken from the axis Conc log(nM)
Protocol: In the study, the binding of the antibodies, after being diluted in a gradient, to a stable CHO-S strain line overexpressing human TNFR2 on the surface was assayed by using a flow cytometer.
CHOS-hTNFR2 cells were counted and diluted to 2×10⁶ cells/mL, and added to a U-bottom 96-well plate at 100 μL/well. The mixture was centrifuged at 300 g for 5 min, and the cell medium was removed. Samples (the humanized antibodies hz3C4.7, hz69B1.5, hz69B1.6, hz69B1.11 and hz69B1.20, the chimeric antibody 69B1, and the positive control antibody OPI) (the antibodies were subjected to a three-fold dilution in PBS from the maximum antibody concentration of 300 nM) were added to the U-plate, and the cells were resuspended at 100 μL/well and left to stand on ice for 30 min. The suspension was centrifuged at 400 g for 5 min, and the supernatant was removed. The cells were washed twice with PBS. The mixture was centrifuged at 300 g for 5 min, and PBS was removed. 100 μL of anti-human Fc PE-labeled secondary antibody (SoutherBiotech; 2040-09) (diluted at a 1:100 ratio in PBS) was added to each well and incubated on ice for 30 min in the dark. The mixture was centrifuged at 400 g for 5 min, and the supernatant was removed. The cells were washed 3 times with PBS. The cells were resuspended in 200 μL of 1×PBS and assayed by FACS.

[4] = molecular target: T2, human TNFR2 overexpressed on CHO-S …; test: flow cytometry on CHO-S cells overexpressing human TNFR2 (positive control), MFI-FL2-A; unit taken from the axis Conc log(nM)
Protocol: as §1, §2

Row | Binder | EC50 [1] [nM] | EC50 [2] [nM] | EC50 [3] [nM] | EC50 [4] [nM]
1 | B1 | 0.324 | 3.14 |  | 
2 | B2 | 0.355 | 2 |  | 
3 | B3 |  |  | 0.486 | 2.62
